Measured values: patent publication US20230295330A1 (Seagen, published 2023)
Where a chain is given by its changes, count along the chain named.

T1: CD228 on A375 and A2058 cells (human, UniProt P08582 20-709)
T1 construct: whole, on cells; GPI-anchored cell surface protein; also called CD228 on A375 cells; CD228 on A2058 cells
T1 sequence (looked up): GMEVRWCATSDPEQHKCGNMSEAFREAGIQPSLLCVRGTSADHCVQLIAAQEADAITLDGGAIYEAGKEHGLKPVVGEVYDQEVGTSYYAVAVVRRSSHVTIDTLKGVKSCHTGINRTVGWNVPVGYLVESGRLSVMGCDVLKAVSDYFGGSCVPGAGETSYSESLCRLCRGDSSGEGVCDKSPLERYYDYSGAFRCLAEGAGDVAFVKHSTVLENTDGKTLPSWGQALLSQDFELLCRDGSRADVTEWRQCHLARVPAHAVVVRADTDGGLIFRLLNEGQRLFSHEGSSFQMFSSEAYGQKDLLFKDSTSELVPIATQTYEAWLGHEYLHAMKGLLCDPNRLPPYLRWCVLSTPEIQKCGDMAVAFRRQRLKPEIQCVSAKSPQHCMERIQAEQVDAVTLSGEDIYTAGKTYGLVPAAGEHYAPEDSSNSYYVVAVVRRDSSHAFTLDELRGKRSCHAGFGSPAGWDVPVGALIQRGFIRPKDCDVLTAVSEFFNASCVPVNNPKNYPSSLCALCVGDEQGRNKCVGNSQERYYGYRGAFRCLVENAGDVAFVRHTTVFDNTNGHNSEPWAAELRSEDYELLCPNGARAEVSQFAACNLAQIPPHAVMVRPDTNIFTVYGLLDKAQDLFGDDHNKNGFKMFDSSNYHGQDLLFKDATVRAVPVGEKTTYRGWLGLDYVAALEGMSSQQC

T2: human CD228 (R&D Systems Custom02; Lot DCWR021505A) (human, UniProt P08582 20-709, limits assumed)
T2 construct: Bought custom protein coated on ELISA plates; also called CD228 protein; melanotransferrin
T2 sequence (looked up): T1 sequence (looked up)

B1: hL49 (antibody, V domains shown)
VH: QVQLQESGPGLVKPSETLSLTCTVSGDSITSGYWNWIRQPPGKGLEYIGYISDSGITYYNPSLKSRVTISRDTSKNQYSLKLSSVTAADTAVYYCARRTLATYYAMDYWGQGTLVTVSS
VL: DFVMTQSPLSLPVTLGQPASISCRASQSLVHSDGNTYLHWYQQRPGQSPRLLIYRVSNRFSGVPDRFSGSGSGTDFTLKISRVEAEDVGVYYCSQSTHVPPTFGQGTKLEIK
notes: Humanized antibody; Only variable domains are tied to it; also called hL49 HALC; hL49 WT
B2: hL49_3X_Gln (antibody, V domains shown)
VH: B1 VH
VL: B1 VL with H31Q, H39Q, H98Q
notes: hL49 triple mutant: all three light chain CDR histidines changed to glutamine; also called 3X-Gin
B3: hL49_27D_Gln (antibody, V domains shown)
VH: B1 VH
VL: B1 VL with H31Q
notes: hL49 variant with the light chain CDR-L1 histidine 27D changed to glutamine
B4: hL49_34_Gln (antibody, V domains shown)
VH: B1 VH
VL: B1 VL with H39Q
notes: hL49 variant with the light chain CDR-L1 histidine 34 changed to glutamine
B5: hL49_34_Tyr (antibody, V domains shown)
VH: B1 VH
VL: B1 VL with H39Y
notes: hL49 variant with the light chain CDR-L1 histidine 34 changed to tyrosine; also called hL49_H34Y; hL49_Tyr
B6: hL49_3X_Tyr (antibody, V domains shown)
VH: B1 VH
VL: B1 VL with H31Y, H39Y, H98Y
notes: hL49 triple mutant: all three light chain CDR histidines changed to tyrosine
B7: hL49_27D_Ala (antibody, V domains shown)
VH: B1 VH
VL: B1 VL with H31A
notes: hL49 variant with the light chain CDR-L1 histidine 27D changed to alanine
B8: hL49_27D_Tyr (antibody, V domains shown)
VH: B1 VH
VL: B1 VL with H31Y
notes: hL49 variant with the light chain CDR-L1 histidine 27D changed to tyrosine
B9: hL49_3X_Ala (antibody, V domains shown)
VH: B1 VH
VL: B1 VL with H31A, H39A, H98A
notes: hL49 triple mutant: all three light chain CDR histidines (two in CDR-L1, one in CDR-L3) changed to alanine
B10: hL49_34_Ala (antibody, V domains shown)
VH: B1 VH
VL: B1 VL with H39A
notes: hL49 variant with the light chain CDR-L1 histidine 34 changed to alanine; also called hL49_H34A

Assays:
[1] = biological target: T1, CD228 on A375 and A2058 cells; experiment: flow cytometry saturation binding on A2058 cells (~40K receptors), neutral pH
Experimental: (§1) The ability of various anti-CD228 antibodies to bind to CD228 on A375 cells, A2058 cells, and CD228 protein was evaluated at neutral pH using a saturation binding assay. Briefly, 1×10⁵ A2058 or A375 cells that have either 40,000 or 18,000 copies of CD228 respectively, were aliquoted per well of a 96-well v-bottom plates. Each CD228 antibody was added in concentrations ranging from 0.66 pM to 690 nM and incubated on ice for 60 minutes. Cells were pelleted and washed 3× with PBS/BSA followed by addition of 10 μg/ml of a PE labeled anti-human IgG goat secondary antibody and incubated on ice for an additional 60 minutes. Cells were pelleted and washed 3× with PBS/BSA and resuspended in 125 μL of PBS/BSA. Fluorescence was analyzed by flow cytometry, using percent of saturated fluorescent signal to determine percent bound and to subsequently calculate apparent KID. […] The histidine 34 variants show large differences for substitutions with alanine, glutamine, and tyrosine.

[2] = biological target: T2, human CD228 (R&D Systems Custom02; Lot …); experiment: BLI (Octet Red 384), antibody as ligand, antigen as analyte
Experimental: The binding kinetics of hL49, hL49_34Ala, and hL49_Tyr were determined using BioLayer Interferometry (BLI) technology in an Octet Red 384 instrument using the antibodies as the ligands and the antigen as the analyte. […] In contrast, hL49_34Tyr has a slower on-rate but a similar off-rate compared to wild-type hL49, which may explain its reduced affinity on cells.

[3] = biological target: T1, CD228 on A375 and A2058 cells; experiment: flow cytometry saturation binding on A375 cells (~18K receptors), neutral pH
Experimental: as §1

[4] = biological target: T2, human CD228 (R&D Systems Custom02; Lot …); experiment: ELISA, coated human CD228, pH 6.30
Experimental: (§2) Briefly, 100 ng of human CD228 (R&D Systems Custom02; Lot DCWR021505A) or BSA (Sigma; Catalog No. A7030-100G) were diluted in PBS and added to each well overnight at 4° C. Plates were then washed three times with PBS-T (EMD Millipore; Catalog No. 5246531EA). After washing, plates were blocked with 3% (w/v) BSA in PBS-T for 1 hour at room temperature. Excess blocking buffer was then removed and the primary antibody was added in 3-fold dilutions in diluent buffer (0.15M citrate-phosphate buffer pH 4.0-7.5) starting at an antibody concentration of 60 nM. After incubating for 1 hour at room temperature, the plates were washed 3 times and then incubated with secondary antibody (Goat anti-human IgG Fc-specific HRP-conjugated, Jackson ImmunoResearch code #109-035-098) in PBS-T with 1% BSA. After incubating for 30 minutes at room temperature, plates were washed 3 times. 100 μl TMB substrate (Life Technologies-, Cat #002023) was then added to each well. After incubating 10 minutes at room temperature, 100 μl H₂SO₄ was added to each well to stop the reaction, plates were covered with clear plate seal and read on an Envision at […]. pH-dependent binding for hL49 and nine variants with histidine substituted to alanine, glutamine, or tyrosine in the light chain CDRs are shown in FIG. 1A-1I. […] The triple mutants have lower affinity overall compared to hL49.

[5] = biological target: T2, human CD228 (R&D Systems Custom02; Lot …); experiment: ELISA on CD228 protein, neutral pH (rounded form of Table 2, pH 7.40)
[6] = biological target: T2, human CD228 (R&D Systems Custom02; Lot …); experiment: ELISA, coated human CD228, pH 7.40
Experimental: as §2

[7] = biological target: T2, human CD228 (R&D Systems Custom02; Lot …); experiment: ELISA, coated human CD228, pH 4.55
Experimental: as §2

[8] = biological target: T2, human CD228 (R&D Systems Custom02; Lot …); experiment: ELISA, coated human CD228, pH 5.60
Experimental: as §2

Binder	EC50 [1]	Kd [2]	kobs [2]	koff [2]	kon [2]	EC50 [3]	EC50 [4]	EC50 [5]	EC50 [6]	EC50 [7]	EC50 [8]
B1	0.6 nM	13.1 nM	0.0853 s⁻¹	0.0011 s⁻¹	84200 M⁻¹ s⁻¹	1.1 nM	136 nM	1.8 nM	1.76 nM		
B2	1.3 nM					2.1 nM	52.6 nM	14.6 nM	14.6 nM		
B3	0.5 nM					0.9 nM	1.48 nM	0.7 nM	0.68 nM	365 nM	17.3 nM
B4	2.1 nM					5.5 nM	23.4 nM	1.7 nM	1.65 nM		169 nM
B5	11.2 nM	132 nM	0.0113 s⁻¹	0.00132 s⁻¹	10000 M⁻¹ s⁻¹	79 nM					
B6	1.3 nM					2.1 nM	74.6 nM	5.4 nM	5.43 nM		
B7	0.6 nM					1.1 nM	0.99 nM	0.6 nM	0.55 nM	460 nM	9.14 nM
B8	0.7 nM					1.1 nM	0.96 nM	0.7 nM	0.72 nM	335 nM	5.16 nM
B9	0.9 nM					1.4 nM	73.8 nM	4.5 nM	4.46 nM	108 nM	405 nM
B10	1.3 nM	15.8 nM	0.282 s⁻¹	0.00438 s⁻¹	277000 M⁻¹ s⁻¹	1.6 nM	16.5 nM	1.2 nM	1.2 nM		271 nM
